Assay results published in the nanobody polyreactivity screen of Harvey et al. (2022).

Assay: yeast display, Sf9 membrane polyspecificity reagent, FACS + sequencing; frameworks hold sequencing errors
In short: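 Polyreactivity labels are assigned by the sorting gate from which each nanobody was recovered. The gates were low and high (top ~1%), set on anti-HA fluorescence for expression and streptavidin fluorescence for reagent binding. Before sorting, galactose-induced (36–48 hours) yeast display cells were stained for 1 hour at 4 °C with 10% biotinylated, detergent-solubilized Sf9 membrane reagent.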

| Sequence | polyreactivity (PSR sort gate) |
| --- | --- |
| QVQLVESGGGLVQAGGSLRLSCAASGRTFFGYTMGWYRHAPGKERELVAVISKRGGRTYYADSVKGRFTISRDNAKNTVYLQMNSLKPEDTAVYYCNRVKDSNVSQAMEYWGQGTQVTVSS | high polyreactivity |
| QVQLVESGGGLVQAGGSLRLSCAASGSIFTLYAMGWYRQAPGKERELVAAITSGGRTYYADSVKGRFTISRDNAKNTVYLQMKSLKPEDTAVYYCNAVSRSWDFEYWGQGTQVTVSS | high polyreactivity |
| QVQLVESGGGLVQAGGSLRLSCAASGFTFSYYAMGWYRQAPGKERELVAAISWNGGSTYYADSVKGRFTISRDNAKNTVYLQMNSLKPEDTAVNYCAADSLLYYYDTGYEYWGQGTQVTVSS | high polyreactivity |
| QVQLVESGGCLVQAGGSLRLSCAASGSIINYYAMGWFRQAPGKERELVAGITTSGGSTYYADSVKGRFTISRDNAKHTVDLQMNSLKPEDTAVYYCAAYDYSSSTYFLDDYWGQGTQVTVSS | low polyreactivity |
| QVQLVESGGGLVQAGGSLRLSCAASGSTFGYNAMGWYRQAPGKEREFVASIDARGTSTYYADSVKGRFTISRDNAKNTVYLQMNSLKPEYTAVYYCAADAEFTWSTVRLGWIYIWYEYWGQGTQVTVSS | low polyreactivity |
| QVQLVESGGGLVQAGGSLRLSCAASGSTFAANTMGWYRQAPGKERELVAAITVRGGSTYYADSVKGRFTISRDNAKNTVYLQMNSLKPEDTAGYYGAAERPPYGYLVVGYVSTQYYYWGQGTQVTVSS | low polyreactivity |
| QVQLVESGGGLVQAGGSLRLSCAASGSIFYLYAMGWYRQAPGKERELVAAITWRGGITNYADSVKGRFTISRDNAKNTVYLQMNSLKPEDTAVYYCAADPYRFLATELYYWGQGTQVTVSS | low polyreactivity |
| QVQLVESGARLVQAGGSLRLSCAASGLIFYGNAMGWYRQAPGKERELVAAISRRGGRTYYADSVKGRFTISRDNAENTVYLQKNSLKPEDTAVYYCAAQYSYPYYKVTLYYWGQGTQVTVSS | high polyreactivity |
| QVQLVESGGGLVQAGGSLRLSCAASGFTFDPDAMGWYRQAPGKERELVASITWSGDNTYYADSVKGRFSISRDNAKTTVYLQMNSLKPEDTAVYYCNVEWAWWSTRYDSWGQGTQVTVSS | high polyreactivity |
| QVQLVESGGGLVQAGGSLRLSCAASGSIFGFNALGWYRQAPGKERELVASITWSGSSTYYADSVKGRFTISRDNAKNTVYLQMNSLKPEDTAVYYCAKEFVHTHFYLWHVFKYGYWGQGTQVTVSS | low polyreactivity |
| QVQLVESGGGLVQAGGSLRLSCAASGSTFQSYTMGWYRPAPGKERELVAAISSSGGRTYYADSVKGRFTISRDNAKHTVYLQMNSLKPEDTAVYYCAAVTQSWRGATWYDYWGQGTQVTVSS | high polyreactivity |
| QVQLVESGGGLVQAGGSLRLSCAASGSTFYGNAMVWYIQAPGKERELVAAIRWRGGRTYYADSVKGRFTNSRDNAKYTVYLKLNSLIPEDTAVYDCNALPGVSDTQYDRVGYWGQGTQVTVSS | high polyreactivity |
| QVQLVESGGGLVQAGGSLRLSCAASGSTFRVNAMGWYRQAPGKERELVAAISYRGGSTYYADSVKGRFTISRDNAKNTVYLQMINLKPEDTAVYYCNADLKRRTYGPDSYYWGQGTQVTVSS | high polyreactivity |
| QDQLVESGGGLVQAGGSLRLSCAASGRIFKVYAMGRYRQAPGKERELVAAITRNTGSTYYADSVKGRFTISRDNAKNTVYLQMNSLKPEDTSVFYCAVDVRSGRAYDYWGQGTQVTVSS | high polyreactivity |
| QVQLVESGGGLVQAGGSLRLSCAASGFIFVNYAMGWYRQAPGKERELVAAITRRGGRTYYADSVKGRFTISRDNAKNTVFLQINRLKPEDTAVYYCATENQSRTPEEDSWGQGTQVTVSS | high polyreactivity |
| QVQLVESGGGLVHAGGSLRLICAGSGFTFRGYAMGWYRQAPGKEMELVADITSGGSTYYADSVKGRFTISRDNAKNTVYLQMNSLKPEDTAVYYCAPRQRSRSRYDYWGQGTQVTVSS | high polyreactivity |
| QVQLVESGGGLVQAGGSLRLTCAASGGTISVYDMGWYRQAHGNERELVAAIRDRGVSTYYADSVKGRFTISRDTAKNTVYLQMNSLKPEDTAVYYCAAEYFDGSTYSYYYWGQGTQVTVSS | high polyreactivity |
| QVQLVESGGGLVQAGGSLRLSCAASGNIFKYYAMGWYRQAPGKERELVAAISWGGSRTYYADSVKGRFTISRDNAKNTVSLQMNSLKPEDTAVYYCAARVYGVDGFGYWGLGTQVTVSS | high polyreactivity |
| QVQLVESGGGLVQAGGSLRLSCAASGIIIDSNAMGWYRQAPGKERELVADITSGGSTKYADSVKGRFTISRDNAKNTVYLQMNSLKPEDTAVYYCNADFRPADQWSYFYEMDSWGQGTQVTVSS | low polyreactivity |
| QVQLEESGGVLVQAGGSLRLSCAASGLTLYRNAMGWYRQAPGKERELVATINFSGGSTYYADSVKGRFTISRDNAKNTVYLQMNSLKPEDTAVYYCNARGYWHYSPTKFDYWGQGTQVTVSS | low polyreactivity |
| QVQLVESGGGLVQAGGSLRLSCAASGIIFVYYVMGWYRQAPGKERELVASIDGSGGSTNYADSVKGRFTISRDNAKNTVYLQMNSLKPEDTAVYYCNADNILYWSTLDYWGQGTQVTVSS | low polyreactivity |
| QVQLVESGGGLVQAGGSLRLSCAASGFTIVHYAMGWYRQAPGKERELVAAITWNGGRTYYADSVKGRFTISRDTAKNTVYLQMNSLKPEDTAVYYCAVRYKSWYGFNYWGQGTQVTVSS | high polyreactivity |

| Sequence | polyreactivity (PSR sort gate) |
| --- | --- |
| QVQLVESGGGLVQAGGSLRLSCAASGRTFAWYTMGWYRQAPGKERELVASITKRGGRTYYADSVKGRFTISRDNAKNTVYLQMNSLKPEDTAVYYCAAGASQGRGTVTFDYWGQGTQVTVSS | high polyreactivity |
| QLQLVESGGGLVQAGGSLRLSCASSGRIFRYNAMGWYRQAPGKERELVAVISGSGGSTYYADSVKGRFTISRDNAKNTVYLQMNSLKPEDTAVYYCAAQFHVSWYNYWGQGTQVTVSS | low polyreactivity |
| QVQLVESGGSLVQAGGSLRLSCAASGSIFFYYAMGWYRQAPGKERELVAAISWSGGSTYYADSVKGRFTISRDNAKNTVYLQMNSLKPEDTAVYYCAADRPYAGRYWKGYHSALYDYWGQGTQVTVSS | low polyreactivity |
| QVQLVESGGGLVQAGGSLRLSCAASGRTFGQHAMGWYRQAPGKDRELVASIRSGGITDYADSVKGRFTISRDNAKNTVYLQMNSLKPEDTAVYYCNAEGVWWSTRYDSWGQGTQVTVSS | low polyreactivity |
| QVQLVESGGGLVQAGGSLRLSCAASGRTFLVYAMGWYRQAPGKERELVAAITWTGGTTYYADSVKGRFTISRDNAKNTVYLQMNSLKPEDTAVYYCNKRGSAWLVEEVDYWGQGTQVTVSS | low polyreactivity |
| QVQLVESGGGLVQAGGSLRLSCAASGRIFYWNAMGWYRQAPGKEREFVAAISWSGGSTYADSVKGRFTISRDNAKNTVYLQMNSLKPEDTAVYYCATRVSRSFRAYDYWGQGTQVTVSS | high polyreactivity |
| QVQLVESGGGLVQAGGSLRLSCAASGIIFYDYAMGWYRQAPGKERELVAAITSSGGSTYYADSVKGRFTISRDNAKNTVYLQMNSLKPEDTAVYYCADATRGSGRRYDYWGQGTQVTVSS | high polyreactivity |
| QVQLVESGGGLVQAGGRLRLSCAASGRIFPRYVMGWYRQAHGKERELVAAITYRGGSTSYADSVKGRFTISRDNAKNTVYLQMNSLKPEDTAVYYCNAYRRAGRTVGTTRRYYYLGQGTQVTVSS | high polyreactivity |
| QVQLVESGGGLVQAGGSLRLSCAASGRIFQRYTMGWYRQAPGKEREFVAAITYSGGSTHYADSVKGRFTISRDNAKNTVYLQMNSLKPEDTAVYYCNADRYYGRGYGYWGQGTQVTVSS | low polyreactivity |
| QVQLVESWGGLVQAGGSLRLSCAASGITFFTYAMGWYRQAPGKERELVAGISKTGGRSYYADSVKGRFTISRDNSKNTVYLQMNSLKPDDTAVYFCAAYFRSDYGYWGQGNQVTVSS | high polyreactivity |
| QVQLVVSGGGLVQAGGSLRLSCAASGYIFDYNAMGWYIQSPGKERELVAAINWSGGSTYYADSVKGRFTISRDNAKNTVYLQMNSLKPEDTAVYYCNKLIYGIYYPERYAYDYWGQGTQVTVSS | low polyreactivity |
| QVQLGESGGGLVQAGGSLRLSCAASGGIINYYAMGWYRQAPGKEWELVAAITSAGSTYADSVKGRFTISRDNAKNTVYLQMNSLKPDDSAVYYCNAVGFVLKVGYYLIGYAKWYDYWGQGTHVTVSS | low polyreactivity |
| QVQLVESGGGLVQAGGSLRLSCSAYGRIFRGYAMGGYRQAPGKERELVASISGGDSTYADSVQGRFTISRDNAKNTVYLQMNSLKPEDTAVYYCADDNEWPRYDYWGQGTQVTVSS | low polyreactivity |
| QVQLVESVGGLVQAGGSLRLSCAASVYMFYDYDMGWYRQAPGKAREFVARITSDGSTYADSVKGRFTISRDNAKNTVYLQMNMLKPEDTAVYYCNRKSRSYFWSVQDSFKYDYWGQGTQVTVSS | low polyreactivity |
| QVQLVESGGGLVQAGGSLRLSCAASGSTFRTYAMGWYRQAPGKERDLVASIDSTGSTNYADSVKGRFTISRDNAKNTVYLQMNSLKPEDTAVYYCAAETYSDPPFYAYDYWGQGTQVTVSS | low polyreactivity |
| QVQLVESGGGLVQAGGSLRLSCAASGSTFTGNAMGWYRQAPGKERELVASINGSSGSTYYADSVKGRFTISRDNAKNTVYLQMNSLKPEDTAVYYCAKDSFLHFPLVGWVGLEYWGQGTQVTVSS | low polyreactivity |
| QVQLVESGGGLVQAGGSLRLSCAASGIIFWFYAMGWNRQAPGKERELVAAISGDGDSTYYADSVKGRFTISRDNAKNTVYLQMNSLKPEDTAVYYCAAEWDPVFATDEDDYWGQGTQVTVSS | low polyreactivity |
| QFQLVESGGGLVQAGGSLRLSCAASGRIFGPYAMGWYRQAPGKERELVASISGGGSTNYADSVKGRFTISRDNAKNTVYLQMNSLKPEDTAVYYCAADVYYQYWGWWPYDYWGQGTQVTESS | low polyreactivity |
| QVQLVESGGGLVQAGGSLRLSCAASGSTLRDYVMGWYRQAPGKERELVAAITSRVDDTYYADSVKGRFTISRDNAKNTVYLQMNSLKPEDTAVYDCAADYSVTLRIGGYYWFYAFDYWGQGTQVTVSS | low polyreactivity |
| QVQLVESGGGLVQAGGSLRLSCAASGIIFWYNTMGWYRQAPGKERELVAAITYGGGSTYYADSVKGRFTISRDNAKNSVYLQMNSLKPEDTAVYYCAVRNWHLIKYLHGYSRYGYWGQGTQVTVSS | low polyreactivity |
| QVQLVESGGGLVQAGGSHRLSCAASGSIFTINPMGWYRQAPGKERELVAAIRSGGGTNYADSVKGRFTISRDNAKNTVYLQMISLKPEDTAVYYCAADLWAGKYGEYDYWGQGTQVTVSS | high polyreactivity |
